T1: alpha-s1 casein from Bos taurus
T1 chain: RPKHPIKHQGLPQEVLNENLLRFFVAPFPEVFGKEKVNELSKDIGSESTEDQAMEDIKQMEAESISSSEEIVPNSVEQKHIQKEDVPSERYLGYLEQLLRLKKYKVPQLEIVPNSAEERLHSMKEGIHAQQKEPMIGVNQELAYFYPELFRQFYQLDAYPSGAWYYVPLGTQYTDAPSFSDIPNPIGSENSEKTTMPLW


Biological target: T1, alpha-s1 casein from Bos taurus

Protein	(αSN1-1)/(αSN1), 6 hours, 11° C.	(αSN1-1)/(αSN1), 24 hours, 11° C.	αs1-I CN, 6 hours, 11° C. [Volume]	αs1-I CN, 24 hours, 11° C. [Volume]	αs1 CN, 6 hours, 11° C. [Volume]	αs1 CN, 24 hours, 11° C. [Volume]	(αSN1-1)/(αSN1), 6 hours, 11° C. (average)	(αSN1-1)/(αSN1), 24 hours, 11° C. (average)	hydrolysis of the first cut in alpha-s1-casein	small, 6 hours, 11° C. [Volume]
camel chymosin variant #138 (F223E) (protein) GKVAREPLTSYLDSQYFGKIYIGTPPQEFTVVFDTGSSDLWVPSIYCKSNVCKNHHRFDPRKSSTFRNLGKPLSIHYGTGSMEGFLGYDTVTVSNIVDPNQTVGLSTEQPGEVFTYSEFDGILGLAYPSLASEYSVPVFDNMMDRHLVARDLFSVYMDRNGQGSMLTLGAIDPSYYTGSLHWVPVTLQQYWQFTVDSVTINGVAVACVGGCQAILDTGTSVLEGPSSDILKIQMAIGATENRYGEFDVNCGNLRSMPTVVFEINGRDYPLSPSAYTSKDQGFCTSGFQGDNNSELWILGDVFIREYYSVFDRANNRVGLAKAI	0.6	1.4	2e+07	2.47e+07	3.29e+07	1.74e+07				
camel chymosin variant #140 (F223M) (protein) GKVAREPLTSYLDSQYFGKIYIGTPPQEFTVVFDTGSSDLWVPSIYCKSNVCKNHHRFDPRKSSTFRNLGKPLSIHYGTGSMEGFLGYDTVTVSNIVDPNQTVGLSTEQPGEVFTYSEFDGILGLAYPSLASEYSVPVFDNMMDRHLVARDLFSVYMDRNGQGSMLTLGAIDPSYYTGSLHWVPVTLQQYWQFTVDSVTINGVAVACVGGCQAILDTGTSVLMGPSSDILKIQMAIGATENRYGEFDVNCGNLRSMPTVVFEINGRDYPLSPSAYTSKDQGFCTSGFQGDNNSELWILGDVFIREYYSVFDRANNRVGLAKAI	0.7	2	2.34e+07	2.27e+07	3.22e+07	1.14e+07				
camel chymosin variant #141 (F223N) (protein) GKVAREPLTSYLDSQYFGKIYIGTPPQEFTVVFDTGSSDLWVPSIYCKSNVCKNHHRFDPRKSSTFRNLGKPLSIHYGTGSMEGFLGYDTVTVSNIVDPNQTVGLSTEQPGEVFTYSEFDGILGLAYPSLASEYSVPVFDNMMDRHLVARDLFSVYMDRNGQGSMLTLGAIDPSYYTGSLHWVPVTLQQYWQFTVDSVTINGVAVACVGGCQAILDTGTSVLNGPSSDILKIQMAIGATENRYGEFDVNCGNLRSMPTVVFEINGRDYPLSPSAYTSKDQGFCTSGFQGDNNSELWILGDVFIREYYSVFDRANNRVGLAKAI	0.7	2	2.57e+07	2.49e+07	3.57e+07	1.27e+07				
camel chymosin variant #139 (F223L) (protein) GKVAREPLTSYLDSQYFGKIYIGTPPQEFTVVFDTGSSDLWVPSIYCKSNVCKNHHRFDPRKSSTFRNLGKPLSIHYGTGSMEGFLGYDTVTVSNIVDPNQTVGLSTEQPGEVFTYSEFDGILGLAYPSLASEYSVPVFDNMMDRHLVARDLFSVYMDRNGQGSMLTLGAIDPSYYTGSLHWVPVTLQQYWQFTVDSVTINGVAVACVGGCQAILDTGTSVLLGPSSDILKIQMAIGATENRYGEFDVNCGNLRSMPTVVFEINGRDYPLSPSAYTSKDQGFCTSGFQGDNNSELWILGDVFIREYYSVFDRANNRVGLAKAI	1.2	4.3	2.59e+07	1.24e+07	2.1e+07	2.9e+06				
camel chymosin variant #144 (F223Y) (protein) GKVAREPLTSYLDSQYFGKIYIGTPPQEFTVVFDTGSSDLWVPSIYCKSNVCKNHHRFDPRKSSTFRNLGKPLSIHYGTGSMEGFLGYDTVTVSNIVDPNQTVGLSTEQPGEVFTYSEFDGILGLAYPSLASEYSVPVFDNMMDRHLVARDLFSVYMDRNGQGSMLTLGAIDPSYYTGSLHWVPVTLQQYWQFTVDSVTINGVAVACVGGCQAILDTGTSVLYGPSSDILKIQMAIGATENRYGEFDVNCGNLRSMPTVVFEINGRDYPLSPSAYTSKDQGFCTSGFQGDNNSELWILGDVFIREYYSVFDRANNRVGLAKAI	1	3.3	3.05e+07	2.82e+07	3.12e+07	8.4e+06				
camel chymosin variant #143 (F223V) (protein) GKVAREPLTSYLDSQYFGKIYIGTPPQEFTVVFDTGSSDLWVPSIYCKSNVCKNHHRFDPRKSSTFRNLGKPLSIHYGTGSMEGFLGYDTVTVSNIVDPNQTVGLSTEQPGEVFTYSEFDGILGLAYPSLASEYSVPVFDNMMDRHLVARDLFSVYMDRNGQGSMLTLGAIDPSYYTGSLHWVPVTLQQYWQFTVDSVTINGVAVACVGGCQAILDTGTSVLVGPSSDILKIQMAIGATENRYGEFDVNCGNLRSMPTVVFEINGRDYPLSPSAYTSKDQGFCTSGFQGDNNSELWILGDVFIREYYSVFDRANNRVGLAKAI	1.1	2.4	2.62e+07	1e+07	2.36e+07	4.1e+06				
camel chymosin variant #142 (F223Q) (protein) GKVAREPLTSYLDSQYFGKIYIGTPPQEFTVVFDTGSSDLWVPSIYCKSNVCKNHHRFDPRKSSTFRNLGKPLSIHYGTGSMEGFLGYDTVTVSNIVDPNQTVGLSTEQPGEVFTYSEFDGILGLAYPSLASEYSVPVFDNMMDRHLVARDLFSVYMDRNGQGSMLTLGAIDPSYYTGSLHWVPVTLQQYWQFTVDSVTINGVAVACVGGCQAILDTGTSVLQGPSSDILKIQMAIGATENRYGEFDVNCGNLRSMPTVVFEINGRDYPLSPSAYTSKDQGFCTSGFQGDNNSELWILGDVFIREYYSVFDRANNRVGLAKAI	0.7	1.7	2.55e+07	1.75e+07	3.72e+07	1.02e+07				
Maxiren (recombinant wild-type calf chymosin B) (protein) GEVASVPLTNYLDSQYFGKIYLGTPPQEFTVLFDTGSSDFWVPSIYCKSNACKNHQRFDPRKSSTFQNLGKPLSIHYGTGSMQGILGYDTVTVSNIVDIQQTVGLSTQEPGDVFTYAEFDGILGMAYPSLASEYSIPVFDNMMNRHLVAQDLFSVYMDRNGQESMLTLGAIDPSYYTGSLHWVPVTVQQYWQFTVDSVTISGVVVACEGGCQAILDTGTSKLVGPSSDILNIQQAIGATQNQYGEFDIDCDNLSYMPTVVFEINGKMYPLTPSAYTSQDQGFCTSGFQSENHSQKWILGDVFIREYYSVFDRANNLVGLAKAI			2.12e+07	1.59e+07	1.14e+07	1.6e+06	1.7	6.3	This rapid first cut is similar to the situation with wild-type calf chymosin (Maxiren)	0

Same assay, conditions: not given

Protein	small, 16 hours, 30° C. [Volume]	small, 24 hours, 11° C. [Volume]	αs1-I CN, 6 hours, 11° C. (average) [Volume]	αs1-I CN, 16 hours, 30° C. [Volume]	αs1-I CN, 24 hours, 11° C. (average) [Volume]	αs1-I CN/αs1 CN, 6 hours, 11° C.	αs1-I CN/αs1 CN, 24 hours, 11° C.	αs1 CN, 6 hours, 11° C. (average) [Volume]	αs1 CN, 16 hours, 30° C. [Volume]	αs1 CN, 24 hours, 11° C. (average) [Volume]
Maxiren (recombinant wild-type calf chymosin B) (protein) GEVASVPLTNYLDSQYFGKIYLGTPPQEFTVLFDTGSSDFWVPSIYCKSNACKNHQRFDPRKSSTFQNLGKPLSIHYGTGSMQGILGYDTVTVSNIVDIQQTVGLSTQEPGDVFTYAEFDGILGMAYPSLASEYSIPVFDNMMNRHLVAQDLFSVYMDRNGQESMLTLGAIDPSYYTGSLHWVPVTVQQYWQFTVDSVTISGVVVACEGGCQAILDTGTSKLVGPSSDILNIQQAIGATQNQYGEFDIDCDNLSYMPTVVFEINGKMYPLTPSAYTSQDQGFCTSGFQSENHSQKWILGDVFIREYYSVFDRANNLVGLAKAI	8.1e+06	6.7e+06	2.63e+07	600000	2.52e+07	1.9	9.7	1.58e+07	900000	4e+06

Source: patent publication US20150140169
